B1: VGX-300 (Fc fusion)
chain: YSMTPPTLNITEESHVIDTGDSLSISCRGQHPLEWAWPGAQEAPATGDKDSEDTGVVRDCEGTDARPYCKVLLLHEVHANDTGSYVCYYKYIKARIEGTTAASSYVFVRDFEQPFINKPDTLLVNRKDAMWVPCLVSIPGLNVTLRSQSSVLWPDGQEVVWDDRRGMLVSTPLLHDALYLQCETTWGDQDFLSNPFLVHITGNELYDIQLLPRKSLELLVGEKLVLNCTVWAEFNSGVTFDWDYPGKQAERGKWVPERRSQQTHTELSSILTIHNVSQHDLGSYVCKANNGIQRFRESTEVIVHE
notes: only Ig-like domains I-III were in the molecule; Produced by transient expression in CHO or HEK cells; also called Parent; VGX-300 parent; not shown: Fc region gamma chain (detected with anti-human IgG)
B2: Human VEGF-C (ligand, UniProt P49767 103-227, looked up)
chain: TEETIKFAAAHYNTEILKSIDNEWRKTQCMPREVCIDVGKEFGVATNTFFKPPCVSVYRCGGCCNSEGLQCMNTSTSYLSKTLFEITVPLSQGPKPVTISFANHTSCRCMSKLDVYRQVHSIIRR
notes: also called VEGF-C ligand
B3: Human VEGF-D (ligand, UniProt O43915 93-201, looked up)
chain: FYDIETLKVIDEEWQRTQCSPRETCVEVASELGKSTNTFFKPPCVNVFRCGGCCNEESLICMNTSTSYISKQLFEISVPLTSVPELVPVKVANHTGCKCLPTAPRHPYS
notes: also called VEGF-D ligand
B4: VGX-301-ΔN2 (Fc fusion)
chain: YSMTPPTLNITEESHVIDTGDSLSISCRGQHPLEWAWPGAQEAPATGDKDSEDTGVVRDCEGTDARPYCKVLLLHEVHAQDTGSYVCYYKYIKARIEGTTAASSYVFVRDFEQPFINKPDTLLVNRKDAMWVPCLVSIPGLNVTLRSQSSVLWPDGQEVVWDDRRGMLVSTPLLHDALYLQCETTWGDQDFLSNPFLVHITGNELYDIQLLPRKSLELLVGEKLVLNCTVWAEFNSGVTFDWDYPGKQAERGKWVPERRSQQTHTELSSILTIHNVSQHDLGSYVCKANNGIQRFRESTEVIVHE
notes: also called N2 mutant; not shown: Fc region gamma chain as in VGX-300

The target of assay [1] is B2. Nature of the assay: cell-based or functional assay.
Assay [2] addresses B3. Nature of the assay: cell-based or functional assay.
Assay [3] addresses B2. The experiment in a line: cell-based or functional assay. The source holds these as a separate data set.
Assay [4] has as its target B3. The experiment in a line: cell-based or functional assay. The source holds these as a separate data set.
Assay [5] addresses B2. The experiment in a line: cell-based or functional assay. The source holds these as a separate data set.
Assay [6] deals with B3. The experiment in a line: cell-based or functional assay. This is another data set of the same source.
Assay [7] deals with B2. The experiment in a line: ELISA on plate-coated VEGF-C (2 µg/mL), anti-human IgG-HRP detection; sigmoidal fit of the curve of FIG. 2A.
Assay [8] deals with B3. The experiment in a line: ELISA on plate-coated VEGF-D (2 µg/mL), anti-human IgG-HRP detection; sigmoidal fit of the curve of FIG. 2A. (ELISA stands for enzyme-linked immunosorbent assay.)
Assay [9] deals with B1. The experiment in a line: SPR, ProteOn XPR36; trap captured on protein G' on a GLM chip, ligand as analyte. An excerpt:
(§1) The results of the affinity experiment are provided below in Table 5.
In general terms: In SPR one partner is held on a chip, and binding of the other changes the refractive index at the surface.

For assay [10], the target named is B4. Described as above.
Excerpt: as §1

Where two headings read alike, the source gives them in different places.

For the molecule B1, the “IC50 (read off the curve); VEGF-C-driven proliferation (WST-1) of Ba/F3 cells with the VEGFR-2 ECD/EpoR chimeric receptor” value in [1] is ~0.02 µg/mL. Moreover, the “IC50 (read off the curve); VEGF-D-driven proliferation (WST-1) of Ba/F3 cells with the VEGFR-2 ECD/EpoR chimeric receptor” value in assay [2] was ~3 µg/mL. Moreover, the “IC50 (read off the curve); VEGF-C-driven proliferation (WST-1) of Ba/F3 cells with the VEGFR-3 ECD/EpoR chimeric receptor” value in assay [3] is ~0.01 µg/mL; in assay [5] it was ~0.007 µg/mL. The “IC50 (read off the curve); VEGF-D-driven proliferation (WST-1) of Ba/F3 cells with the VEGFR-3 ECD/EpoR chimeric receptor” value in [4] was ~0.4 µg/mL; in assay [6], ~0.5 µg/mL. Moreover, the EC50 in [7] came to 0.058 µg/mL; in assay [8] it was 0.504 µg/mL.
In assay [9], B2 showed a Kd of 0.0051 nM, a koff of 1.11e-05 s⁻¹ and a kon of 2.18e+06 M⁻¹ s⁻¹. In addition, in assay [10], the Kd was found to be 0.0037 nM, the koff is 1.03e-05 s⁻¹ and the kon is 2.79e+06 M⁻¹ s⁻¹.
In the case of B3, the Kd in [9] was determined as 0.625 nM; in assay [10], 0.677 nM.
Turning to B4, the “IC50 (read off the curve); VEGF-C-driven proliferation (WST-1) of Ba/F3 cells with the VEGFR-3 ECD/EpoR chimeric receptor” value in [5] was ~0.005 µg/mL. Moreover, the “IC50 (read off the curve); VEGF-D-driven proliferation (WST-1) of Ba/F3 cells with the VEGFR-3 ECD/EpoR chimeric receptor” value in [6] is ~0.3 µg/mL. Also, the EC50 in assay [7] is 0.0295 µg/mL; in assay [8], 0.105 µg/mL.

What is called EC50 is the concentration at which the effect is half-maximal. Lower therefore signals higher potency in that assay. In general, Kd refers to the concentration at which binding is half-saturated. As a reminder, the koff is the first-order rate constant of dissociation. Lower therefore signals slow dissociation. In general, kon refers to a measure of how fast the partners come together. A high value points to faster complex formation.

The values are drawn from patent publication US20170349886A1 (VEGENICS, published 2017).
